To fix the notation:
T1: human Glypican-1 (UniProt P35052 24-530)
T1 chain: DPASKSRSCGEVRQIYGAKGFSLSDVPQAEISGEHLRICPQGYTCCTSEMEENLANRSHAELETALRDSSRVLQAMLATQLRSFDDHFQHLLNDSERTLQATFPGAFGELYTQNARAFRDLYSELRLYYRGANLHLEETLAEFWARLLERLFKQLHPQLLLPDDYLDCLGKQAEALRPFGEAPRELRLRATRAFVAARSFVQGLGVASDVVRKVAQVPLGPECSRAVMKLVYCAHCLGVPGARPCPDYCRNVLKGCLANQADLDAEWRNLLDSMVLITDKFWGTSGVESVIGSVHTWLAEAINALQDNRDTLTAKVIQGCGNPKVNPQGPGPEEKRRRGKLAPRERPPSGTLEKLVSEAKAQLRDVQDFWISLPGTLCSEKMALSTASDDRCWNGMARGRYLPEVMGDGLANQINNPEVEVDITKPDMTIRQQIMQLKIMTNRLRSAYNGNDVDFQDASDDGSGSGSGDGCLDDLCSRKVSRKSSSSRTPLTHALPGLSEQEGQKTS

B1: anti-Glypican-1 antibody clone K090-02a014 (antibody, V domains shown)
VH: EVQLQQSGPELVKPGASVKISCKASGYSFTGYYIHWVKQSPEKSLEWIGEINPSTGDITYNQKFKAKATLTVDKSSSTAYMQLKSLTSDDSAVYYCARERNYDRFAYWGQGTLVTVSS
VL: SIVMTQTPALMAASPGEKVTITCSVSSSISSSNLHWYQQKSETSPKPWIYGTSNLASGVPVRFSGSGSGTSYSLTISSMEAEDAATYYCQQWSSYPLTFGAGTKLEIKR
B2: anti-Glypican-1 antibody clone K090-01a033 (antibody, V domains shown)
VH: QVQLKQSGPELVKPGASVKISCKASGYSFTGYYMHWVKQSPEKSLEWIGEINPSTGDTTYNQKFKAKATLTVDKSSSTAYMQLKSLTSEDSAVYYCAREKRDDGVFAYWGQGTLVTVSS
VL: DIVMSQSPKSMSMSVGERVALSCKASENVGTYVSWYQQKPEQSPKLLIYGASNRYTGVPDRFTGSGSATDFTLTISSVQAEDLADYYCGQSYSYPLTFGAGTKLELKR
B3: anti-Glypican-1 antibody clone K090-01a042 (antibody, V domains shown)
VH: QVQLQQPGAELAKPGASVKMSCKASGYTFTRYWMHWVKQRPGQGLEWIGYINPSSGYTEYNQKFKDKATLTADKSSSTAYMQLSSLTSEDSAVYYCVRLGDYSYYFDYWGQGTTLTVSS
VL: DVVMTQTPLSLPVSLGDQASISCRSSQSIVHSNGNTYLEWYLQKPGQSPKLLIYKVSNRFSGVPDRFSGSGSGTDFTLKISRVEAEDLGVYYCFQGSHVPWTFGGGTKLELKR
B4: anti-Glypican-1 antibody clone K090-01a009 (antibody, V domains shown)
VH: EVQLQQSGPELVKPGASVEISCKASGYSFTGYFMNWVKQSQGKSLEWIGRINPDNGDIFYNQKFKGKATLTVDKSSSTAHMELRSLTSEDSAVYYCARSWNWYFDVWGAGTTVTVSS
VL: DIQMTQSPASLSASVGETVTITCRASENIYSYLAWYQQKQGKSPQLLVYNAKTLAEGVPSRFSGSGSGTQFSLKINSLQPEDFGSYYCQHHYGTPYTFGSGTKLEIKR
B5: anti-Glypican-1 antibody clone K090-02b006 (antibody, V domains shown)
VH: EVQLVESGGGLVKPGGSRKLSCAASGFTFSDYGMHWVRQAPEKGLEWVAYISSGSSTIYYADTVKGRFTISRDNAKNTLFLQMTSLRSEDTAIYYCVRHSYYNYDIGGYYAMDYWGQGTSVTVSS
VL: DIVLTQSPSSLSASLGERVSLTCRASQEISGYLSWLQQKPDGTIKRLIYAASTLDSGVPKRFSGSRSGSDYSLTISSLESEDFADYYCLQYASYPLTFGAGTKLEIKR
B6: anti-Glypican-1 antibody clone K090-02a002 (antibody, V domains shown)
VH: B5 VH with Q3K, I93M, V97A, N103S, I106V, Y109D, A111V
VL: DIVMSQSPKFMSTSVGDRVSITCKASQDVGTAVAWYQQKPGQSPKLLIYWASTRHTGVPDRFTGSGSGTDFTLTISNVQSEDLADYFCQQYSSYPLTFGAGTKLEIKR
B7: anti-Glypican-1 antibody clone K090-02a010 (antibody, V domains shown)
VH: B5 VH with Q3K, S52N, E89G, I93M, V97A, N103S, I106V, Y109D, A111V
VL: B6 VL with M4L, S5T
B8: anti-Glypican-1 antibody clone K090-01a030 (antibody, V domains shown)
VH: QVQLQQSGAELVRPGTSVKMSCKAAGYTFTNYWIGWVKQRPGHGLEWIGDIYPGGGYTHYNEKFKGKATLTADTSSSTAYMQLSSLTSEDSAIYYCARERVYYDGSRYFDVWGAGTTVTVSS
VL: DIKMTQSPKFLPVSAGDRVTMTCKASQSVGNNVAWYQQKPGQSPKLLIYYASNRYTGVPDRFTGSGSGTDFTFTISSVQVEDLAVYFCQQHYSSPWTFGGGTKLEIKR
B9: anti-Glypican-1 antibody clone K090-01a017 (antibody, V domains shown)
VH: B8 VH with Q1E, A9G, I51L, Y103F
VL: B8 VL with D1S, K3V, S7T
B10: anti-Glypican-1 antibody clone K090-01a002 (antibody, V domains shown)
VH: B2 VH with Q1E, K5Q, A24S, G31R, Q39H, F106L
VL: B8 VL with K3Q, W96L, G100A, I106L
B11: anti-Glypican-1 antibody clone K090-01a026 (antibody, V domains shown)
VH: B8 VH with Q3H, Y108F
VL: B8 VL with K3V, T5S
B12: GPC1 (other)
chain: T1 chain

Positions count from the first letter of the chain named.

The first assay addresses T1, human Glypican-1. Put plainly: FACS.
A word on the Kd: it is a measure of binding affinity in units of concentration. Read a high Kd as a looser complex. Molecule B1 yielded a Kd of 1.72 nM.
Still for that read-out and setting: with B2 the figure was 0.583 nM; with B3, 6.36 nM; with B4, 4.47 nM.
Take B5: the Kd was found to be 3.2 nM.
The molecule B6 gave a Kd of 2.25 nM.
B7 yielded a Kd of 2.25 nM. In other words, the single-digit nanomolar range.
Same read-out and setting: then B8, with 5.24 nM; and B9, with 5.92 nM.
For B10, the Kd is 0.638 nM.
B11: the Kd is 11.2 nM.

In a further assay the target is T1, human Glypican-1. Put plainly: Biacore.
B1 came in with a Kd of 2.52 nM.
Same read-out and setting: with B2 the figure was 8.9 nM; with B3, 16.2 nM.
B4: binding was characterised by a dissociation constant (Kd) of 26.9 nM.
Still for that read-out and setting: with B5 the figure was 16.3 nM; with B6, 1.12 nM; with B7, 1.28 nM.
Still for that read-out and setting: with B8 the figure was 42.8 nM; with B9, 24.9 nM; with B10, 4.99 nM.
The molecule B11 returned a Kd of 12400 nM. This Kd lies about 2500-fold higher than the previous one.

The target of another assay is clone18. The assay is described as follows: Biacore. For orientation: In SPR one partner is held on a chip, and binding of the other changes the refractive index at the surface.
Regarding B12, the Kd worked out at 3.21 nM.

The target of another assay is clone4. The assay is described as follows: Biacore.
B12 registered a Kd of 3.21 nM.

Another assay concerns the target clone18. Put plainly: FACS. On the technique in general: Flow cytometry measures light scatter and fluorescence of single cells or particles in a stream.
With B12, binding was put at a Kd of 1.52 nM.

The target of a further assay is clone4. The assay is described as follows: FACS.
For B12, the Kd was determined as 0.804 nM. This counts as sub-nanomolar.

The values are drawn from patent US20200308299A1 (published 2020).
